The record followed here is patent US11787839B2, “Targeting α2δ-1-bound glutamate receptors for treating diseases and disorders” (Board of Regents, The University of Texas System, priority 2017, dated 2023).

The test system of test [1] is morphine-treated rats. Kind of test: Opioid-induced hyperalgesia and analgesic tolerance in rats. The settings on record: co-treatment: gabapentin 100 mg/kg i.p. or peptide 1 μg intrathecal.
Test [2] has as its system calpain. Kind of test: MCAO: spectrin BD level (calpain activation) in brain tissues. The settings on record: MCAO WT mice; gabapentin posttreatment; peptide 200 μg/kg i.p. twice. The test is classed as in vivo, mouse. The source says:
α2δ-1 and α2δ-1-bound NMDARs contribute to MCAO-induced calpain activation in brain tissues: Cerebral ischemia increases calpain activity, and calpain inhibition is neuroprotective against ischemia-induced brain injury. Spectrin is highly sensitive to proteolysis by calpain, and the stable αIIspectrin breakdown product (spectrin BD, 150 kDa) is commonly used as a biochemical assay for calpain activation.

The target of test [3] is T1, NMDARs of spinally projecting PVN neurons (Rattus norvegicus, UniProt P35439+Q00959+Q00960).
T1 construct: from tissue; host or cells: rat hypothalamic slices containing the PVN (Sprague-Dawley, WKY, SHR) and synaptosomes made from them
T1 sequence (Q00959 20-1464 limits assumed, other chains not shown): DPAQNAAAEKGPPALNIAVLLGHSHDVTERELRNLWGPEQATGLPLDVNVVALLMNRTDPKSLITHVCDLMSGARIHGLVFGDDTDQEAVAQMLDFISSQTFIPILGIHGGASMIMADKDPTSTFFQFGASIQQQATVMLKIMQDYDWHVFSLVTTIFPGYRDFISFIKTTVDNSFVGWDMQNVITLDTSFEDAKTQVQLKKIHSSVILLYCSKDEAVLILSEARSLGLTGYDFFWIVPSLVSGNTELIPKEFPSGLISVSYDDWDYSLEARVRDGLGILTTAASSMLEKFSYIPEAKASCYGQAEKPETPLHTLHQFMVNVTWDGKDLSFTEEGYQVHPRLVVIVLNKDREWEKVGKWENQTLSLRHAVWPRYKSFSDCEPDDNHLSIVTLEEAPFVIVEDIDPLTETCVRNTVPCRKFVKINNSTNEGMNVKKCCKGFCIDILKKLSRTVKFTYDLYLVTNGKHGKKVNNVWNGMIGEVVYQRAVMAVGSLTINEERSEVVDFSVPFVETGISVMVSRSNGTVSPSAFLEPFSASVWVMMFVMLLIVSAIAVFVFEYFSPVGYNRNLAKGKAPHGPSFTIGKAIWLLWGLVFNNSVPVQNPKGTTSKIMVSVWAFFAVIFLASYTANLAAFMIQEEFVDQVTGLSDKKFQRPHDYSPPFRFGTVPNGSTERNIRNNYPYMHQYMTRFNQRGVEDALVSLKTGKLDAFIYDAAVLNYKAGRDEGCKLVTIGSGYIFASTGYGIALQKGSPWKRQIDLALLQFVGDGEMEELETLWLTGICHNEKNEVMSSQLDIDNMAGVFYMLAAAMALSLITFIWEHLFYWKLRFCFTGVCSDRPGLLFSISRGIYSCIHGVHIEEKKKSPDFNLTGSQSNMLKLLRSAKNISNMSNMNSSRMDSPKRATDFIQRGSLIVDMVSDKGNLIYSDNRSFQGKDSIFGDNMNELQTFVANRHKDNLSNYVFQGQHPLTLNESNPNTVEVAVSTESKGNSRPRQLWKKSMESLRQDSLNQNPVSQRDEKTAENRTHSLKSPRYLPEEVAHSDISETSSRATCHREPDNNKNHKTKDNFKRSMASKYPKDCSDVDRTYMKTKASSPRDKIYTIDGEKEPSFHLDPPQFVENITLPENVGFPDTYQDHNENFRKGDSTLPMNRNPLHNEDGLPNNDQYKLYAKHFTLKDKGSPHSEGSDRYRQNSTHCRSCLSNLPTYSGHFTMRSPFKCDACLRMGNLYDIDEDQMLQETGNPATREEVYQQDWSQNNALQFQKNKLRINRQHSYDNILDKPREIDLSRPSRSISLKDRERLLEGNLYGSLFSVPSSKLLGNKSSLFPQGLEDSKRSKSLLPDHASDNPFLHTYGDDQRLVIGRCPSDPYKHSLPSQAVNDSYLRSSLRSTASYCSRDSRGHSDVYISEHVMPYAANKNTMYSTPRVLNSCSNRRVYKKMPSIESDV
T1 sequence (Q00960 27-1482, other chains not shown): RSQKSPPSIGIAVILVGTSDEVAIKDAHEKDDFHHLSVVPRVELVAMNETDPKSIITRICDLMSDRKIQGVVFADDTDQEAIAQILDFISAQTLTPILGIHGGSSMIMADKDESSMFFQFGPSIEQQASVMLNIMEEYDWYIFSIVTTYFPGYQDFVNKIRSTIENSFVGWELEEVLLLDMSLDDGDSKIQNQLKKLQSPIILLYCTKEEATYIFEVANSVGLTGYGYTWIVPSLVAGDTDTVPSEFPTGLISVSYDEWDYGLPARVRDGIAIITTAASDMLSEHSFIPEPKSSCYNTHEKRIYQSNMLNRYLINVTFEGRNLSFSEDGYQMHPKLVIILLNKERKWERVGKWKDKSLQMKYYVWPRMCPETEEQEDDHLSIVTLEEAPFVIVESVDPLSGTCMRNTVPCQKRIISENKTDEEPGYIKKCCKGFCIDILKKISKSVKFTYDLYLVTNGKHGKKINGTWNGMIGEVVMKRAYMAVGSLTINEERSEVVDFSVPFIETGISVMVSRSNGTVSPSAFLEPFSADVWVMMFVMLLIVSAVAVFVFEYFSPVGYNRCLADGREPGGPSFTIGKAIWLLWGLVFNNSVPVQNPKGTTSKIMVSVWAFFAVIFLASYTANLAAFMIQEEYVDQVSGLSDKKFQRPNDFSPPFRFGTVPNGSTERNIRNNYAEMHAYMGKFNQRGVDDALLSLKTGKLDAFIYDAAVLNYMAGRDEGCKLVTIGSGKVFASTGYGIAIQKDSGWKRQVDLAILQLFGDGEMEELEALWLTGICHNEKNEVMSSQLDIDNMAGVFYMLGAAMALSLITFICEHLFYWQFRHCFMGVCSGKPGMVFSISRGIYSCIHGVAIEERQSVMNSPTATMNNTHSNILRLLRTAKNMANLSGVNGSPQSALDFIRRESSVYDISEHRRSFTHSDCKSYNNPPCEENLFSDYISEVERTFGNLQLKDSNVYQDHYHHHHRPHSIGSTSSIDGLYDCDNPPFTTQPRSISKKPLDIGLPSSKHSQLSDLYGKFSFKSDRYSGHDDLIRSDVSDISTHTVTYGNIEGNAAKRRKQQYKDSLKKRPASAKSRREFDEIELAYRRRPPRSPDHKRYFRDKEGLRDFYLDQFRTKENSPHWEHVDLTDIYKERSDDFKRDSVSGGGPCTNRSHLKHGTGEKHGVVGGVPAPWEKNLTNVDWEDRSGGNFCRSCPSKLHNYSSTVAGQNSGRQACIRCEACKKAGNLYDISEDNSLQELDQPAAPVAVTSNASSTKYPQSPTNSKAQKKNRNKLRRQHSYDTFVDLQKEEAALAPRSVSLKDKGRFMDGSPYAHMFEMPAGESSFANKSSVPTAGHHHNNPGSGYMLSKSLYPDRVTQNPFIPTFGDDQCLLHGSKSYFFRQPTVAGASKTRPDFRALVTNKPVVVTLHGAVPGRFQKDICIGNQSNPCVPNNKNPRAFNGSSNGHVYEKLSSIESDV
Kind of test: Recordings of spinally projecting PVN neurons in rat brain slices (Ang II). The test is classed as cell-based. The text has this: Retrograde labeling of spinally projecting PVN neurons: Rats or mice were anesthetized with 2-3% isoflurane, and their spinal cords at the T1-T4 level were exposed through dorsal laminectomy. A fluorescent microsphere suspension (FluoSpheres, 0.04 μm; Molecular Probes, Invitrogen, Eugene, Oreg.) was pressure ejected (Nanoject II Microinjectors, Drummond Scientific Company, Broomall, Pa.) bilaterally into the IML region of the spinal cord in six separate 50-nl injections using a glass micropipette (tip diameter, 20-30 μm). […] The wound was closed with sutures after injection. Animals were returned to their cages for 4-7 days, which was sufficient time to permit the tracer to be retrogradely transported to the PVN. The animals were inspected daily for motor activity, signs of infection, and food and water intake.
Brain slice preparation: Four to seven days after fluorescent tracer injection, the animals were anesthetized with isoflurane and rapidly decapitated. […] Coronal slices (thickness, 300 μm) containing the PVN were cut from the tissue block in the ice-cold aCSF. […] The brain slices were placed in a glass-bottom chamber and continuously perfused with aCSF at 3.0 ml/min at 34° C. maintained by an inline solution heater and temperature controller.
The labeled PVN neurons were briefly identified with the aid of epifluorescence illumination, and whole-cell recordings from labeled PVN neurons were performed under differential interference contrast optics on an upright microscope (BX50 WI; Olympus Optical, Tokyo, Japan). Recordings of postsynaptic currents began 5 min after the whole-cell access was established and the current reached a steady state.
Signals were processed with an […] amplifier (Axon Instruments, Foster City, Calif.). A liquid junction potential of 15 mV (for the potassium gluconate pipette solution) was corrected during off-line analysis.
Postsynaptic NMDAR currents were elicited by puff application of 100 μmol/L NMDA to the recorded neuron using a positive pressure system (4 p.s.i., 50 ms; Toohey Company, Fairfield, N.J.). The tip of the puff pipette was placed 150 μm from the recorded neuron. […] The NMDAR current data presented in the manuscript were the average of 3 consecutive currents elicited by repeated puff NMDA. The neuron was discarded if the current was not stable.
Ang II, losartan, and NMDA were obtained from Sigma (St. Louis, Mo.). The α2δ-1Tat peptide and scrambled control peptide were synthesized by Bio Basic Inc. (Markham, Ontario, Canada) and validated by liquid chromatography and mass spectrometry. […] All drugs were prepared immediately before the experiments and applied to the slice chamber. The brain slices were first pretreated with Ang II, losartan, α2δ-1Tat peptide, or control peptide in the slice incubation chamber before recording. For electrophysiological recording, the treatment agents were immediately removed and the brain slice transferred to a separate recording chamber.

Test [4] addresses T2, GluN1 and α2δ-1 in hypothalamic synaptosomes (Rattus norvegicus, UniProt P35439+Q00959+Q00960).
T2 construct: from tissue; host or cells: rat hypothalamic slices containing the PVN (Sprague-Dawley, WKY, SHR) and synaptosomes made from them
Description: Protein level analysis in hypothalamic synaptosomes (Ang II). The test is classed as cell-based. The procedure: Protein level analysis in hypothalamic synaptosomes: The hypothalamic tissues containing the PVN (pooled from 2 rats per sample) were homogenized using 10 volumes of ice-cold HEPES-buffered sucrose (0.32 mol/L sucrose, 1 mmol/L EGTA, and 4 mmol/L HEPES at pH 7.4) containing the protease inhibitor cocktail (Sigma-Aldrich). The homogenate was centrifuged at 2,000×g for 10 min at 4° C. to remove the nuclei and large debris. The supernatant was centrifuged at 20,000×g for 30 min to obtain the crude synaptosomal fraction. The synaptosomal pellet was lysed via hypo-osmotic shock in 9 volumes of ice-cold HEPES-buffer with the protease inhibitor cocktail for 30 min. The lysate was centrifuged at 25,000×g for 45 min at 4° C. to obtain the synaptosomal membrane fraction (Chen et al., 2018), which was then dissolved in sodium dodecyl sulfate sample buffer at a final concentration of 0.25 μg/μl for immunoblotting.
Western blotting was used to quantify GluN1 and α2δ-1 protein levels in the hypothalamic synaptosome. Fifteen micrograms of total proteins from each sample was loaded and separated by 4-15% Tris-HCl sodium dodecyl sulfate-polyacrylamide gel electrophoresis (#456-1086, Bio-Rad, Hercules, Calif.). The resolved proteins were transferred to a polyvinylidene difluoride membrane (Millipore). The membrane was treated with 5% nonfat dry milk in Tris-buffered saline (TBS) at 25° C. for 1 h and then incubated in TBS supplemented with 0.1% Triton X-100, 1% bovine serum albumin, and rabbit anti-GluN1 (#G8913, 1:100; Sigma, RRID: AB_259978), rabbit anti-α2δ-1 (#ACC-015, 1:500, Alomone, Jerusalem, Israel, RRID: AB_2039785), and mouse anti-PSD-95 (#75-348, 1:1,000, NeuroMab, Davis, Calif., RRID: AB_2315909) antibodies overnight at 4° C. The membrane was washed 3 times and then incubated with horseradish peroxidase-conjugated anti-rabbit IgG (1:5,000; Jackson ImmunoResearch, West Grove, Pa.) for 1 h at room temperature. The protein bands were detected with an enhanced chemiluminescence kit (Thermo Fisher Scientific, Waltham, Mass.), and protein band intensity was visualized and quantified using an Odyssey Fc Imager (LI-COR Biosciences, Lincoln, Nebr.). The protein levels of GluN1 and α2δ-1 were normalized by the PSD-95 protein band on the same gel.

The mark [5] stands for this setting: Ang II 2 μmol/L for 60 min vs vehicle.
[6] abbreviates: peptide 1 μmol/L for 30 min, vs control peptide.

Consider `NCC1(CC(=O)O)CCCCC1` [gabapentin], for which, in test [1], the “reduction in baseline withdrawal thresholds induced by chronic morphine injections” value was “completely blocked” and the “reduction in the analgesic effect of morphine” value is “substantially attenuated”. Further, the “spectrin BD level in cortex, hippocampus and striatum” value in test [2] was “significantly reduced”.

Regarding “Ang II: angiotensin II, obtained from Sigma (DRVYIHPF; Angiotensin-2; UniProt P01019 25-32, looked up)”, in test [3] (Ang II 2 μmol/L for 30-60 min), the “amplitude of puff NMDA currents of labeled PVN neurons” value is “markedly increased” and the “baseline frequency of mEPSCs of labeled PVN neurons” value is “significantly increased”. Besides, in test [4] (setting [5]), the “protein level of GluN1 in hypothalamic synaptosomes” value is listed as “significantly increased” and the “protein level of α2δ-1 in hypothalamic synaptosomes” value is listed as “significantly increased”.

Regarding “YGRKKRRQRRRVSGLNPSLWSIFGLQFILLWLVSGSRHYLW (a2d1 peptide) [α2δ-1Tat peptide, 30-amino-acid peptide mimicking the C-terminal domain of α2δ-1 fused to the cell-penetrating peptide Tat]”, in test [3] (losartan 2 μmol/L, pregabalin 20 μmol/L, peptides 1 μmol/L), the “effect of Ang II on mEPSC frequency in pretreated slices” value is on record as “failed to increase”. Besides, the “effect of Ang II on puff NMDA currents in pretreated slices” value in test [3] (losartan 2 μmol/L, pregabalin 20 μmol/L, peptides 1 μmol/L, 30 min) is listed as “had no effect”. Further, in test [1], the “reduction in baseline withdrawal thresholds induced by chronic morphine injections” value is given as “completely blocked” and the “reduction in the analgesic effect of morphine” value is given as “substantially attenuated”. Also, the “spectrin BD level in cortex, hippocampus and striatum” value in test [2] is “significantly reduced”. In addition, in test [4] (setting [6]), the “effect of Ang II on the protein level of GluN1” value is on record as “significantly attenuated” and the “effect of Ang II on the protein level of α2δ-1” value was “significantly attenuated”.
